According to paper PMC3005887 (Research letters in biochemistry, 2009):

T1: 6Hishub alone (clathrin hub, bovine clathrin heavy chain aa1074-1675, no bound LCb) (bovine, UniProt P49951 1074-1675)
T1 sequence (looked up): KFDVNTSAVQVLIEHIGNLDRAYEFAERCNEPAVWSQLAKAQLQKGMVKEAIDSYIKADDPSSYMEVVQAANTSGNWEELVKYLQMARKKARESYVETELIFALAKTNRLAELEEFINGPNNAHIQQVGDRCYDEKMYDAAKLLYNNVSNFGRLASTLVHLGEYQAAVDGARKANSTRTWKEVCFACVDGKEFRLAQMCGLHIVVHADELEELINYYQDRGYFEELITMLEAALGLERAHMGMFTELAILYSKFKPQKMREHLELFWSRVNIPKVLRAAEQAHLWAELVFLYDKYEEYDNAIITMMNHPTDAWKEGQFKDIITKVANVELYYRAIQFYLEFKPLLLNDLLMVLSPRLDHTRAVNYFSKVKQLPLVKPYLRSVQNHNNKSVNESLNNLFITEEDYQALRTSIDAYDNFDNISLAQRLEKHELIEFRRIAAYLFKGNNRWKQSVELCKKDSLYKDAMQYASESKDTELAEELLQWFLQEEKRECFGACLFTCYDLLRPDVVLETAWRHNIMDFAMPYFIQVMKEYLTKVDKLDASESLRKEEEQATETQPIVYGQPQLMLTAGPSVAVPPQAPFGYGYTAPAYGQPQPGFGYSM

T2: 6Hishub/6HisLCb (clathrin hub with bound clathrin light chain b) (bovine, UniProt P49951 1074-1675; P04975 1-228)
T2 sequence (looked up) 1: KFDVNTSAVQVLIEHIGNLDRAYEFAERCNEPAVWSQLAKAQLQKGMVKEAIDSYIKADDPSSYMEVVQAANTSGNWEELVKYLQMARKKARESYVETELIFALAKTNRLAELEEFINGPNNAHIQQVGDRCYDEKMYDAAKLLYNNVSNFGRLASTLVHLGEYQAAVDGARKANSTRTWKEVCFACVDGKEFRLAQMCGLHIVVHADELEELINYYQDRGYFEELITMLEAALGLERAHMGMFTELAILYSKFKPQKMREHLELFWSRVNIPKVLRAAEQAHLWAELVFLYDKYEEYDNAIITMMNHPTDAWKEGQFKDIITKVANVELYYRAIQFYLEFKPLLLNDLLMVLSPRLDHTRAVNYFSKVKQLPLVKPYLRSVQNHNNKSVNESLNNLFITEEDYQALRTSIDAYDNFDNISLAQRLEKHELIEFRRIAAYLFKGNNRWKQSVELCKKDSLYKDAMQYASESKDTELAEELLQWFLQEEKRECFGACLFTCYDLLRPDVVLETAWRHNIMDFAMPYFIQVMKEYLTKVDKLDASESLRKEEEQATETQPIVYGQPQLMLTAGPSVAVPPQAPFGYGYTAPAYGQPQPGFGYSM
T2 sequence (looked up) 2: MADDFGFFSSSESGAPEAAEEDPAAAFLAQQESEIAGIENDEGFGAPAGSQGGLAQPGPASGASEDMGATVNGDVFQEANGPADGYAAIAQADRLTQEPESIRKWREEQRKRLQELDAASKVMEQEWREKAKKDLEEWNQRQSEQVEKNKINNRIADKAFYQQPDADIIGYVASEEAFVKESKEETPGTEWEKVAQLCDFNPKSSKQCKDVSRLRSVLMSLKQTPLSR


Experiments:
[1] = target: T1, 6Hishub alone (clathrin hub, bovine …); test: pull-down; GST or GST-HIP1h on glutathione Sepharose 4B beads; 6HisLCb and hub premixed 3:1 at 4 C for at least 30 min; 0.4 nmol hub alone or 1.9 nmol hub/6HisLCb complex; binding buffer 50 mM Tris, 200 mM KCl, 1 mM EDTA, 1% Triton X-100, 50 mM imidazole, 0.5 mg/ml ovalbumin, pH 8.0; 4 C, 1 hour; Western blot (anti-His, CON.1, anti-GST); conditions: both partners purified
[2] = target: T2, 6Hishub/6HisLCb (clathrin hub with …); test: as above; conditions: both partners purified

Binder | binding result [1] | binding result [2]
6HisLCb (N-terminally histidine-tagged bovine clathrin light chain b with the neuronal insert) (natural protein, UniProt P04975 1-228, looked up) MADDFGFFSSSESGAPEAAEEDPAAAFLAQQESEIAGIENDEGFGAPAGSQGGLAQPGPASGASEDMGATVNGDVFQEANGPADGYAAIAQADRLTQEPESIRKWREEQRKRLQELDAASKVMEQEWREKAKKDLEEWNQRQSEQVEKNKINNRIADKAFYQQPDADIIGYVASEEAFVKESKEETPGTEWEKVAQLCDFNPKSSKQCKDVSRLRSVLMSLKQTPLSR | binds | –
GST-HIP1h (Huntingtin-interacting protein 1, aa370-644), wild type (domain or fragment, human, UniProt O00291-1 370-644, looked up) KDEKDHLIERLYREISGLKAQLENMKTESQRVVLQLKGHVSELEADLAEQQHLRQQAADDCEFLRAELDELRRQREDTEKAQRSLSEIERKAQANEQRYSKLKEKYSELVQNHADLLRKNAEVTKQVSMARQAQVDLEREKKELEDSLERISDQGQRKTQEQLEVLESLKQELATSQRELQVLQGSLETSAQSEANWAAEFAELEKERDSLVSGAAHREEELSALRKELQDTQLKLASTEESMCQLAKDQRKMLLVGSRKAAEQVIQDALNQLEE | – | binds
GST-HIP1h (aa370-644) K511E (domain or fragment, human, UniProt O00291-1 370-644, looked up) KDEKDHLIERLYREISGLKAQLENMKTESQRVVLQLKGHVSELEADLAEQQHLRQQAADDCEFLRAELDELRRQREDTEKAQRSLSEIERKAQANEQRYSKLKEKYSELVQNHADLLRKNAEVTKQVSMARQAQVDLEREKEELEDSLERISDQGQRKTQEQLEVLESLKQELATSQRELQVLQGSLETSAQSEANWAAEFAELEKERDSLVSGAAHREEELSALRKELQDTQLKLASTEESMCQLAKDQRKMLLVGSRKAAEQVIQDALNQLEE | – | binds
GST-HIP1h (aa370-644) R508E (domain or fragment, human, UniProt O00291-1 370-644, looked up) KDEKDHLIERLYREISGLKAQLENMKTESQRVVLQLKGHVSELEADLAEQQHLRQQAADDCEFLRAELDELRRQREDTEKAQRSLSEIERKAQANEQRYSKLKEKYSELVQNHADLLRKNAEVTKQVSMARQAQVDLEEEKKELEDSLERISDQGQRKTQEQLEVLESLKQELATSQRELQVLQGSLETSAQSEANWAAEFAELEKERDSLVSGAAHREEELSALRKELQDTQLKLASTEESMCQLAKDQRKMLLVGSRKAAEQVIQDALNQLEE | – | binds
GST-HIP1h (aa370-644) R500E (domain or fragment, human, UniProt O00291-1 370-644, looked up) KDEKDHLIERLYREISGLKAQLENMKTESQRVVLQLKGHVSELEADLAEQQHLRQQAADDCEFLRAELDELRRQREDTEKAQRSLSEIERKAQANEQRYSKLKEKYSELVQNHADLLRKNAEVTKQVSMAEQAQVDLEREKKELEDSLERISDQGQRKTQEQLEVLESLKQELATSQRELQVLQGSLETSAQSEANWAAEFAELEKERDSLVSGAAHREEELSALRKELQDTQLKLASTEESMCQLAKDQRKMLLVGSRKAAEQVIQDALNQLEE | – | binds
